Source: patent US20220363763A1

Molecular target: human D1-D2 truncated LAG-3-ECD-human IgG1 fusion protein (human) (UniProt P18627)
Assay: ELISA on coated ΔD1-D2 huFc; EC50 table has no unit, x axis Ab(nM); fit value of a flat curve

human D1-D2 truncated LAG-3-ECD-human IgG1 fusion protein (human), sequence (P18627 253-450): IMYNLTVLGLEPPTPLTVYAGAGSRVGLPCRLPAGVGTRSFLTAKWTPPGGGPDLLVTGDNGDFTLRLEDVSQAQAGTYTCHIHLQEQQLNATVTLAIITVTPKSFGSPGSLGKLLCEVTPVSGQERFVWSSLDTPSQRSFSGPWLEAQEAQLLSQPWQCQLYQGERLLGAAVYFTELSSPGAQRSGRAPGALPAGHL

EC50: 2.62 nM
B1: 147H mouse monoclonal antibody (antibody, V domains shown)
VH: QVQLQQSGSELVRPGTSVKISCKASGYTFTNYWLGWIKQRPGHGLEWIGDIYPGGDYINYNEKFKGKATLSADTSSSTAYMQLSSLTSEDSAVYFCARPNLPGDYWGQGTSVTVSS
VL: DIVMTQAAFSNPVTLGTSASISCRSSKSLLHSNGITYLYWYLQKPGQSPQLLIYQVSNLASGVPGRFSGSGSGTDFTLRISRVEAEDVGVYYCAQNLELPWTFGGGTKLEIK
